± gives the standard deviation.
Assay: collision cross section of modified peptide (TIMS, N2, iRT-aligned); higher = larger / more extended gas-phase ion
In short: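 Collision cross section values rest on the Mason-Schamp equation applied to calibrated, run-aligned mobility data from synthetic peptides. Mobility (1/K0) was calibrated with three reference ions and aligned per run to the median iRT peptide deviation, and 1–3 technical replicates of the most abundant feature per charge state were averaged. Data came from a timsTOF Pro/HT in dda-PASEF mode (nitrogen, ~2.4 mbar) after a 120-min nanoflow C18 gradient at 60 °C.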

[1] = charge state: 2, modification: Crotonyl
[2] = charge state: 3, modification: Crotonyl
[3] = charge state: 2, modification: Dimethyl (K)
[4] = charge state: 3, modification: Dimethyl (K)
[5] = charge state: 2, modification: Citrullination (R)
[6] = charge state: 2, modification: hydroxyisobutyryl
[7] = charge state: 2, modification: Glutarylation
[8] = charge state: 3, modification: Glutarylation
[9] = charge state: 2, modification: Succinyl
[10] = charge state: 3, modification: Succinyl
[11] = charge state: 2, modification: Phospho (Y)
[12] = charge state: 2, modification: Trimethyl (K)
[13] = charge state: 3, modification: Trimethyl (K)
[14] = charge state: 3, modification: hydroxyisobutyryl
[15] = charge state: 3, modification: Methyl (R)
[16] = charge state: 2, modification: Acetyl (K)
[17] = charge state: 2, modification: Malonyl
[18] = charge state: 2, modification: GlyGly (K)
[19] = charge state: 3, modification: GlyGly (K)
[20] = charge state: 3, modification: Citrullination (R)
[21] = charge state: 3, modification: Butyryl
[22] = charge state: 2, modification: HexNAc (ST)
[23] = charge state: 2, modification: Propionyl
[24] = charge state: 3, modification: HexNAc (ST)
[25] = charge state: 3, modification: Acetyl (K)
[26] = charge state: 2, modification: Hydroxyproline
[27] = charge state: 3, modification: Malonyl
[28] = charge state: 2, modification: Butyryl
[29] = charge state: 3, modification: Propionyl
[30] = charge state: 3, modification: Hydroxyproline
[31] = charge state: 2, modification: Methyl (K)
[32] = charge state: 3, modification: Methyl (K)

Substance: ANLEKAQAELVGTADEATR [_ANLEK(Crotonyl)AQAELVGTADEATR_]
- collision cross section [1]: 478.55 ± 1.5 Å²
- collision cross section [2]: 577.75 ± 0.5 Å²

Substance: LGNDFHTNKR [_LGNDFHTNK(Dimethyl (K))R_]
- collision cross section [3]: 366.02 ± 0.57 Å²
- collision cross section [4]: 412.91 ± 1.1 Å²

Substance: RLPTTGYLVYR [_R(Citrullination (R))LPTTGYLVYR_]
- collision cross section [5]: 383.11 ± 0.23 Å²

Substance: TLQKQSVVYGGK [_TLQK(hydroxyisobutyryl)QSVVYGGK_]
- collision cross section [6]: 398.93 ± 0.3 Å²

Substance: VGVEVPDVNIEGPEGKLK [_VGVEVPDVNIEGPEGK(Gluratylation)LK_]
- collision cross section [7]: 461.98 ± 1.5 Å²
- collision cross section [8]: 531 ± 29 Å²

Substance: SLGEPAAGEGSAKR [_SLGEPAAGEGSAK(Succinyl)R_]
- collision cross section [9]: 381.88 ± 0.8 Å²
- collision cross section [10]: 476.57 ± 0.7 Å²

Substance: LQDVSGQLSSSKK [_LQDVSGQLSSSK(Crotonyl)K_]
- collision cross section [1]: 402.23 ± 0.9 Å²
- collision cross section [2]: 469.03 ± 3.7 Å²

Substance: ITESVAETAQTIKK [_ITESVAETAQTIK(Crotonyl)K_]
- collision cross section [1]: 424.18 ± 0.81 Å²
- collision cross section [2]: 514.18 ± 1.1 Å²

Substance: THLAPYSDELR [_THLAPY(Phospho (Y))SDELR_]
- collision cross section [11]: 373.88 ± 0.063 Å²
- collision cross section (charge state: 3, modification: Phospho (Y)): 446.73 ± 1.1 Å²

Substance: YEEIVKEVSTYIK [_YEEIVK(Succinyl)EVSTYIK_]
- collision cross section [9]: 438.13 ± 0.83 Å²

Substance: DHLSDKESK [_DHLSDK(Dimethyl (K))ESK_]
- collision cross section [3]: 344.63 ± 1.5 Å²
- collision cross section [4]: 408.73 ± 0.56 Å²

Substance: SITHSTVGSKGEK [_SITHSTVGSK(Trimethyl (K))GEK_]
- collision cross section [12]: 408.54 ± 2.1 Å²
- collision cross section [13]: 473.59 ± 1.5 Å²

Substance: TFGKAAGPSLSHTSGGTQSK [_TFGK(hydroxyisobutyryl)AAGPSLSHTSGGTQSK_]
- collision cross section [6]: 498.68 ± 0.33 Å²
- collision cross section [14]: 512.39 ± 2.8 Å²

Substance: HTLLRAPAPELLPANVAGR [_HTLLR(Methyl (R))APAPELLPANVAGR_]
- collision cross section [15]: 530.63 ± 1.2 Å²

Substance: LLEEEDSKLK [_LLEEEDSK(Acetyl (K))LK_]
- collision cross section [16]: 378.84 ± 0.45 Å²

Substance: VYSLFLDESR [_VY(Phospho (Y))SLFLDESR_]
- collision cross section [11]: 376.54 ± 1.2 Å²

Substance: LLFSNTAAQKLR [_LLFSNTAAQK(Malonyl)LR_]
- collision cross section [17]: 400.72 ± 0.029 Å²

Substance: VDIDAPDVSIEGPDAKLK [_VDIDAPDVSIEGPDAK(Succinyl)LK_]
- collision cross section [9]: 469.67 ± 0.79 Å²

Substance: GEVGAGAGPGAQAGPSAKR [_GEVGAGAGPGAQAGPSAK(GlyGly (K))R_]
- collision cross section [18]: 426.91 ± 0.84 Å²
- collision cross section [19]: 469.61 ± 1.1 Å²

Substance: VRFHNPR [_VR(Citrullination (R))FHNPR_]
- collision cross section [5]: 325.95 ± 14 Å²
- collision cross section [20]: 406.17 Å²

Substance: TQDQISNIKYHEEFEK [_TQDQISNIK(Butyryl)YHEEFEK_]
- collision cross section [21]: 559.77 ± 1.1 Å²

Substance: LGNTISSLFGGGTTPDAK [_LGNTISSLFGGGT(HexNAc (ST))TPDAK_]
- collision cross section [22]: 471.52 Å²

Substance: SEASSEFAKK [_SEASSEFAK(Succinyl)K_]
- collision cross section [9]: 351.69 ± 0.87 Å²

Substance: TLQKQSVVYGGK [_TLQK(Propionyl)QSVVYGGK_]
- collision cross section [23]: 393.92 ± 0.49 Å²

Substance: YIDNQVVSTKGER [_YIDNQVVST(HexNAc (ST))KGER_]
- collision cross section [22]: 428.63 ± 0.14 Å²
- collision cross section [24]: 510.94 ± 0.18 Å²

Substance: VPTTEKPTVTVNFR [_VPTTEK(Acetyl (K))PTVTVNFR_]
- collision cross section [16]: 421.49 ± 1.9 Å²
- collision cross section [25]: 507.52 ± 1 Å²

Substance: LGVPGLPGYPGR [_LGVPGLPGYP(Hydroxyproline)GR_]
- collision cross section [26]: 362.53 ± 0.8 Å²

Substance: GTISAPGKVVTAAAQAK [_GTISAPGK(Malonyl)VVTAAAQAK_]
- collision cross section [17]: 432.93 ± 5.1 Å²
- collision cross section [27]: 519.93 ± 1.9 Å²

Substance: TTSYPTPRPYPKPAPSSGK [_TTSYPTPRPYPKPAPS(HexNAc (ST))SGK_]
- collision cross section [24]: 526.67 Å²

Substance: LEKTIDDLEEK [_LEK(Formyl)TIDDLEEK_]
- collision cross section (charge state: 2, modification: Formyl): 399.8 ± 0.55 Å²

Substance: VQGGALEDSQLVAGVAFKK [_VQGGALEDSQLVAGVAFK(Acetyl (K))K_]
- collision cross section [16]: 468.5 Å²
- collision cross section [25]: 554.41 Å²

Substance: ITASLCDLKSR [_ITASLCDLK(Butyryl)SR_]
- collision cross section [28]: 390.25 Å²

Substance: VSPASSVDSNIPSSQGYKK [_VSPASSVDSNIPSSQGYK(Propionyl)K_]
- collision cross section [29]: 557.31 Å²

Substance: VILENIASHEPR [_VILENIAS(HexNAc (ST))HEPR_]
- collision cross section [22]: 443 ± 0.62 Å²
- collision cross section [24]: 492.7 ± 0.18 Å²

Substance: SDDESSQKDIK [_SDDESSQK(Propionyl)DIK_]
- collision cross section [23]: 377.44 ± 0.33 Å²

Substance: SLEEEGAAHSGKR [_SLEEEGAAHSGK(Propionyl)R_]
- collision cross section [23]: 416.58 ± 0.64 Å²
- collision cross section [29]: 480.52 ± 0.66 Å²

Substance: GRGVGSPEPGPTAPYLGR [_GR(Methyl (R))GVGSPEPGPTAPYLGR_]
- collision cross section [15]: 520.34 ± 0.91 Å²

Substance: PSVGSQSNQAGQGKR [_PSVGSQSNQAGQGK(Crotonyl)R_]
- collision cross section [1]: 420.02 ± 0.41 Å²
- collision cross section [2]: 468.33 ± 1.6 Å²

Substance: GGPGSTLSFVGKR [_GGPGSTLSFVGK(GlyGly (K))R_]
- collision cross section [18]: 403.34 ± 0.36 Å²
- collision cross section [19]: 451.29 ± 1.3 Å²

Substance: LAEEENKAK [_LAEEENK(hydroxyisobutyryl)AK_]
- collision cross section [6]: 355.52 ± 0.78 Å²

Substance: ASDTSSETVFGKR [_ASDTSSETVFGK(Biotin)R_]
- collision cross section (charge state: 2, modification: Biotin): 406.15 Å²

Substance: VGEFSGANKEK [_VGEFSGANK(Propionyl)EK_]
- collision cross section [23]: 367.87 ± 0.33 Å²

Substance: VGYPGPSGPLGAR [_VGYP(Hydroxyproline)GPSGPLGAR_]
- collision cross section [26]: 356.91 ± 0.79 Å²
- collision cross section [30]: 437.31 ± 1.7 Å²

Substance: TLHLSHLNRFPAR [_TLHLSHLNR(Citrullination (R))FPAR_]
- collision cross section [20]: 509.04 ± 32 Å²

Substance: TPNLYIYSKK [_TPNLYIYSK(Methyl (K))K_]
- collision cross section [31]: 377.12 ± 0.28 Å²
- collision cross section [32]: 428.93 ± 5.2 Å²

Substance: GTVPDDAVEALADSLGKK [_GTVPDDAVEALADSLGK(Butyryl)K_]
- collision cross section [28]: 458.53 ± 0.36 Å²
- collision cross section [21]: 534.24 ± 1.4 Å²

Substance: FSAYIKNSNPALNDNLEK [_FSAYIK(Acetyl (K))NSNPALNDNLEK_]
- collision cross section [16]: 479.82 ± 3 Å²
- collision cross section [25]: 541.74 Å²

Substance: DSINFLDHINGKK [_DSINFLDHINGK(Acetyl (K))K_]
- collision cross section [25]: 470.59 Å²

Substance: DYQPGITFIVVQKR [_DYQP(Hydroxyproline)GITFIVVQKR_]
- collision cross section [26]: 449.25 ± 1.9 Å²
- collision cross section [30]: 517.44 ± 1.2 Å²

Substance: FDDTNPEKEEAK [_FDDTNPEK(Acetyl (K))EEAK_]
- collision cross section [16]: 394.25 ± 1.3 Å²
- collision cross section [25]: 440.01 ± 0.78 Å²

Substance: ILDLKTGTVK [_ILDLK(Acetyl (K))TGTVK_]
- collision cross section [16]: 355.21 ± 0.89 Å²

Substance: VFIGNLNTLVVKK [_VFIGNLNTLVVK(Acetyl (K))K_]
- collision cross section [16]: 409.46 ± 1.7 Å²
- collision cross section [25]: 485 Å²

Substance: SGGGYGGDRSSGGGYSGDR [_SGGGYGGDR(Methyl (R))SSGGGYSGDR_]
- collision cross section [15]: 484.52 ± 1.5 Å²

Substance: FDDTNPEKEEAK [_FDDTNPEK(Succinyl)EEAK_]
- collision cross section [9]: 397.2 ± 0.56 Å²
- collision cross section [10]: 438.25 ± 3.4 Å²

Substance: IISSIEQKEENK [_IISSIEQK(Methyl (K))EENK_]
- collision cross section [31]: 408.26 ± 2.5 Å²
- collision cross section [32]: 450.18 ± 5 Å²

Substance: GRGLPGPAESLR [_GR(Methyl (R))GLPGPAESLR_]
- collision cross section [15]: 459.68 ± 1.5 Å²

Substance: DSSPTTNSKLSALQR [_DSSPTTNSK(Trimethyl (K))LSALQR_]
- collision cross section [13]: 473.36 ± 2.4 Å²

Substance: SDSGKPYYYNSQTK [_SDSGK(Gluratylation)PYYYNSQTK_]
- collision cross section [7]: 430.3 ± 1.5 Å²
- collision cross section [8]: 493.09 Å²

Substance: INNFSADIKDSK [_INNFSADIK(Trimethyl (K))DSK_]
- collision cross section [12]: 411.01 ± 0.61 Å²
- collision cross section [13]: 459.74 ± 1.8 Å²

Substance: GTITVSAQELKDNR [_GTITVSAQELK(hydroxyisobutyryl)DNR_]
- collision cross section [6]: 423.58 ± 0.3 Å²
- collision cross section [14]: 485.27 ± 2.8 Å²

Substance: ITLSKHQNVQLPR [_ITLSK(Gluratylation)HQNVQLPR_]
- collision cross section [7]: 422.98 ± 0.48 Å²
- collision cross section [8]: 526.02 ± 27 Å²

Substance: TEVLSPNSKVESK [_TEVLSPNSK(Crotonyl)VESK_]
- collision cross section [1]: 417.97 ± 0.81 Å²
- collision cross section [2]: 452.38 ± 1.3 Å²

Substance: LFVGGIKEDTEEHHLR [_LFVGGIK(Malonyl)EDTEEHHLR_]
- collision cross section [27]: 537.8 Å²

Substance: SLKLNTAEDAK [_SLK(Trimethyl (K))LNTAEDAK_]
- collision cross section [12]: 378.59 ± 0.02 Å²
- collision cross section [13]: 461.43 ± 2.4 Å²

Substance: VDGDTQTTVEK [_VDGDTQTT(HexNAc (ST))VEK_]
- collision cross section [22]: 383.53 ± 0.58 Å²

Substance: ITLSKHQNVQLPR [_ITLSK(Butyryl)HQNVQLPR_]
- collision cross section [28]: 443.37 ± 0.53 Å²
- collision cross section [21]: 503.02 ± 28 Å²

Source: the supplement of paper PMC10598134
